Experimental data published in paper PMC6053597, “Coupling of polymerase and carrier lipid phosphatase prevents product inhibition in peptidoglycan synthesis” (The Cell Surface, 2018).

How the values were obtained:
[1] = target: T1, PBP1B (Penicillin-binding protein 1B), untagged (E. coli, UniProt P02919 58-804); experiment: SPR; PBP1A or PBP1B covalently immobilised via their TPase active site on a sensor chip with bound ampicillin; PgpB-ht injected at 0.125-2 μM in 10 mM Tris/maleate pH 7.5, 150 mM NaCl, 5 mM imidazole, 5 mM β-mercaptoethanol, 0.05% DDM; 25 °C, 75 μL/min; equilibrium response fitted to a 1:1 model; apparent KD; settings: both partners purified
T1 construct: PBP1B, bifunctional GTase-TPase peptidoglycan synthase of E. coli (gene mrcB); also called untagged PBP1B; non-tagged PBP1B; source: purified as described (Bertsche et al., 2006; Typas et al., 2010)
T1 sequence: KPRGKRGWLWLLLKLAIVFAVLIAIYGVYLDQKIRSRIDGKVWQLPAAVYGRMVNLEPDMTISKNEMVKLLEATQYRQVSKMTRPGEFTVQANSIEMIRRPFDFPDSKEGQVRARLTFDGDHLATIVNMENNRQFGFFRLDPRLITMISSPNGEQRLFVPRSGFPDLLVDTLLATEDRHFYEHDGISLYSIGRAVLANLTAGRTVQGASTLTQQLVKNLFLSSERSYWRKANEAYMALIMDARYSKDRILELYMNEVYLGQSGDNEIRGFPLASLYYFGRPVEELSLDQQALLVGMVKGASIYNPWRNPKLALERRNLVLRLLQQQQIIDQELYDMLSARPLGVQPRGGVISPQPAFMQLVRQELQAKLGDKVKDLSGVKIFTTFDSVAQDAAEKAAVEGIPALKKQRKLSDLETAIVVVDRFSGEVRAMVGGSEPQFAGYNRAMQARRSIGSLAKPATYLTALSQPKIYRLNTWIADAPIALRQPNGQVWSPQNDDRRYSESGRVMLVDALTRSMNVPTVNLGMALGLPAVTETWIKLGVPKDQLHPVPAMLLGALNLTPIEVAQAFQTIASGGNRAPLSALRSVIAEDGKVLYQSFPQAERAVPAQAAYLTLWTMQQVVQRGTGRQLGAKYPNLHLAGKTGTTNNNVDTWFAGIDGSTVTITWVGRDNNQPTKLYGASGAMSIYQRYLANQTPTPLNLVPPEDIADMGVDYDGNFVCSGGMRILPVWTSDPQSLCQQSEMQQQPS

[2] = target: T1, PBP1B (Penicillin-binding protein 1B), …; experiment: cell-based or functional assay

- Kd [1]: 1050 nM
- lipid II consumption by PBP1B in proteoliposomes of artificial lipids with PgpB at a 1:1 molar ratio, with LpoB(sol), TLC (PBP1B alone: less than 20%) [2]: 63%
B1: PgpB-ht (C-terminal His6-tagged version of PgpB) (enzyme, E. coli)
chain: MRSIARRTAVGAALLLVMPVAVWISGWRWQPGEQSWLLKAAFWVTETVTQPWGVITHLILFGWFLWCLRFRIKAAFVLFAILAAAILVGQGVKSWIKDKVQEPRPFVIWLEKTHHIPVDEFYTLKRAERGNLVKEQLAEEKNIPQYLRSHWQKETGFAFPSGHTMFAASWALLAVGLLWPRRRTLTIAILLVWATGVMGSRLLLGMHWPRDLVVATLISWALVAVATWLAQRICGPLTPPAEENREIAQREQES
notes: PgpB, C55-PP pyrophosphatase (PAP2 family) of E. coli; amplified by PCR from genomic DNA of E. coli BW25113 and cloned into pET28a(+) (pET28a-pgpB); Purified according to Touzé et al., 2008a with modifications; also called oligohistidine tagged PgpB; source: E. coli C43(DE3), membrane fraction solubilised in DDM, purified (Ni-NTA); not shown: His6, C-terminal, kept
